To fix the notation:
B1: RIM1_C2B (residues 1166–1334) (domain or fragment)
chain: GPAQLVGRQTLATPAMGDIQIGMEDKKGQLEVEVIRARSLTQKPGSKSTPAPYVKVYLLENGACIAKKKTRIARKTLDPLYQQSLVFDESPQGKVLQVIVWGDYGRMDHKCFMGVAQILLEELDLSSMVIGWYKLFPPSSLVDPTLAPLTRRASQSSLESSSGPPCIRS
B2: liprin-α2_CC2N (residues 300–404) (domain or fragment)
chain: EVEQEAETARKDLIKTEEMNTKYQRDIREAMAQKEDMEERITTLEKRYLSAQRESTSIHDMNDKLENELANKEAILRQMEEKNRQLQERLELAEQKLQQTMRKAE
B3: liprin-α2_CC2N E379R (protein)
chain: B2 chain with E80R
B4: liprin-α2_CC2N R383A (protein)
chain: B2 chain with R84A

Experiment in all cases: ITC
Background: ITC needs no label: the signal is the heat of the interaction.

In test [1] the target is T1, liprin-α2_CC2N E380R (human, UniProt O75334 300-404, E380R).
T1 sequence: B2 chain with E81R

For test [2], the target named is T2, liprin-α2_CC2N A350S (human, UniProt O75334 300-404, A350S).
T2 sequence: B2 chain with A51S

The target of test [3] is B2.
The target in test [4] is T3, liprin-α2_CC2 (residues 259–542) (human, UniProt O75334 259-542).
T3 chain: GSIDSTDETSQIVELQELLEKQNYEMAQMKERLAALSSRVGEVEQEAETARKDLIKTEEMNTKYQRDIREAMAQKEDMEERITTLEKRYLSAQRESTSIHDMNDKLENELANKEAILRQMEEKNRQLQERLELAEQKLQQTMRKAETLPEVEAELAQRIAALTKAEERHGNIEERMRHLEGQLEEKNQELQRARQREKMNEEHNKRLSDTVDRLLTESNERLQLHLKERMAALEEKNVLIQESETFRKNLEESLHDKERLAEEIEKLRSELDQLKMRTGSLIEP

The target of test [5] is B1.
The target of test [6] is T4, RIM1_C2B L1245Q (Rattus norvegicus).
T4 chain: B1 chain with L80Q

Test [7] addresses T5, RIM1_C2B K1240E (Rattus norvegicus).
T5 chain: B1 chain with K75E

The target of test [8] is T6, RIM1_C2B R1236E (Rattus norvegicus).
T6 chain: B1 chain with R71E

Residue numbers refer to the chain shown, from its start. Numbers in names are those of the source. Where only a bound is given, the exact number is not on record here.

As usually defined, the Kd is the free concentration of one partner at which half of the binding sites on the other are occupied at equilibrium, for simple one-to-one binding. The low end stands for a tighter complex, the high end for a looser complex. B1: the Kd turned out to be 8.2 µM in test [1], 5.7 µM in test [2], 4 µM in test [3] and 5 µM in test [4].
As for B2, the Kd in test [5] is 4 µM; in test [6] it was > 100 µM; in test [7], 25 µM; in test [8], 27 µM.
In turn, B3 came in with a Kd in test [5] of 23 µM.
Still for that read-out and setting: in the case of B4 it was 24 µM.

The values above are taken from PMC12151379 (2025).
